Patent publication US20190194319A1 (AbbVie / Abbott, published 2019)

Legend:
[1] = molecular target: T1, human ASCL1 (Achaete-scute homolog 1) (human, UniProt P50553 1-236); test: ELISA with purified antibody: staining against hASCL1 divided by staining against an irrelevant protein (form of the coated hASCL1 not stated in paragraph 180; the screen it confirms used hASCL1-GST)
T1 construct: also called hASCL1; immobilized human ASCL1
T1 sequence: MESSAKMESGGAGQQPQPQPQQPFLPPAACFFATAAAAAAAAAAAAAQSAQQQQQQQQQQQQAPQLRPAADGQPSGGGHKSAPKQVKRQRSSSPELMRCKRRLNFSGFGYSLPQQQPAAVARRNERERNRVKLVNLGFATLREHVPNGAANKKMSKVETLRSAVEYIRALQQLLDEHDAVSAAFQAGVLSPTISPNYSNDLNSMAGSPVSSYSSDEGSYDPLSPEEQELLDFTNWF
Method: A second immunization campaign was conducted similar to the first with the following modifications: 1) 299×10⁶ cells) were fused with non-secreting SP2/0-Ag14 myeloma cells (ATCC #CRL-1581) at a ratio of 1:1 by electro cell fusion using a model BTX Hybrimmune System (BTX Harvard Apparatus). On day 6, after the fusion, the hybridoma cells were not frozen and were sorted on that day. After the 10 day culture, 6×384 clones were screened by ELISA selecting for antibodies positive to hASCL1-GST (glutathione S-transferase) and counter screened against an irrelevant protein tagged with GST. As part of this, ALK phosphatase-labeled goat anti-mouse IgG diluted 1:5000 in PBSA was used instead of HRP-labeled goat anti-mouse IgG diluted 1:10:000. ELISA samples were analyzed at OD405 instead of OD450.
To confirm the results of the ELISA soup screen a similar ELISA was run on purified antibodies from selected clones. The ELISA positive ratio, (defined as ELISA staining against hASCL1 divided by the ELISA staining against an irrelevant protein) was then determined and set forth in FIG. 3 in the column labeled “ELISA positive ratio”.

[2] = molecular target: T2, hASCL1 expressed in HEK-293T cells (pLMEGPA-hASCL1-NFlag) (human, UniProt P50553 1-236); test: intracellular flow cytometry (gMFI) on permeabilised HEK293T cells transduced with hASCL1, control cells transduced with GFP only; antibody 10 ug/ml
T2 construct: also called HEK293T cells transiently transduced with hASCL1; ASCL1 engineered cells
T2 sequence: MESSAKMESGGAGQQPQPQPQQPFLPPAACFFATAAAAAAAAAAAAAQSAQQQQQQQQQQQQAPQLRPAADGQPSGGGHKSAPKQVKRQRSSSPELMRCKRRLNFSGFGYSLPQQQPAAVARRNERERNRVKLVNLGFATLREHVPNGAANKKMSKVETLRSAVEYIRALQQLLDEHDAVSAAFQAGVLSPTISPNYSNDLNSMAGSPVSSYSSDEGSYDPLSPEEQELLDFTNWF
Method: 1×10⁵ per well of HEK293T cells transiently transduced with hASCL1(as described in Example 1), and HEK293T cells transiently transduced with GFP only were washed with cold PBS and then incubated with a solution of PBS and a Dylight 450 Fixable viability dye for 30 minutes. After incubation, the cells were washed twice with PBS. To permeate the cell walls 100 ul of BD Cytofix/Cytoperm was added to the cells and left to incubate for 20 minutes on ice. Cells were then washed with BD Phosflow perm/wash solution. Purified antibody at a final concentration of 10 ug/ml was then added to the cells in 45 ul of BD Phosflow perm/wash solution, incubated on ice for 30 minutes, and then washed with BD Phosflow perm/wash 2 times. 50 ul of Alexa Fluor 647 conjugated Goat-anti-mouse IgG secondary antibody, was added at 1 ug/ml dissolved in BD Phosflow perm/wash and incubated on ice for 30 minutes, then washed with BD Phosflow perm/wash 3 times. The cells were then resuspended in FACS buffer to be read on BD FACS Canto according to the manufacturer's instructions.
The FlowJo software package (FlowJo LLC) was used to calculate gMFI (geometric Mean Fluorescence Intensity) for each of the anti-ASCL1 antibodies.

[3] = molecular target: T1, human ASCL1 (Achaete-scute homolog 1); test: screening of Example 2 (ELISA) or cells

B1: SC72.201 (antibody, V domains shown)
VH: EVNLEESGGGLVQPGGSMKLSCVASGFTFSNYWMNWVRQSPEKGLEWVAQIRSKSDNYATHYAESVKGRFTISRDDSKSSVYLQMNNLRSEDTGIYYCRTGPDVWGTGTTVTVSS
VL: DIQMTQSPASLSVSVGETVTITCRASENIYSSLAWYQQKQGNSPQLLVYAATKLADGVPSRFSGSGSGTQYSLKINSLQSEDFGSYYCQHFWGTTWTFGGGTKLEIK
notes: Murine monoclonal antibody from a hybridoma of the second immunization campaign; light chain amplified with kappa primers
ELISA positive ratio [1]: 11.7
IC ratio [2]: 0.67

B2: SC72.216 (antibody, V domains shown)
VH: QIQLVQSGPELRKPGETVKISCKASGYTFTNYPMHWVKQAPGKGFKWMGWINTYSGVPSYADDFKGRFAFSLETSASSAYLQINNLKNEDMATYFCARHNYNSYDVFAYWGQGTLVTVSA
VL: DIVVTQSPASLAVSLGQRATISCKASQSVDYDGDSYMNWYQQKPGQPPKLLIYGASNLESGIPARFSGSGSGTDFTLNIHPVEEEDAATYYCQQSNEDPYTFGGGTKLEIK
notes: as for B1
ELISA positive ratio [1]: 13
IC ratio [2]: 1.86

B3: SC72.181 (antibody, V domains shown)
VH: QVQLQQPGAEVVKPGASVRLSCKASGYTFTSYWINWVKQRPGQGLEWIGNIYPGSSSTNYNEKFKSKATLTVDTSSSTAYMQLSSLTSDDSAVYYCSRSESDYWGQGTTLTVSS
VL: DIVLTQSPASLAVSLGQRATISCKASQSVDDDGGTYMSWYQQKPGQPPKLLIYGVFILESGIPARFSGSGSGTDFTLNIHPVEEEDAATYYCQQSNEDPYTFGGGTKLEIK
notes: Murine monoclonal antibody from a hybridoma; light chain amplified with kappa primers
binding result [3]: binds

B4: SC72.165 (antibody, V domains shown)
VH: QVQLQQPGAELVRPGASVRLSCKASGYSFTSYWINWVKQRPGQGLEWIGNIYPGSSNTNYNEKFKRKATLTVDTSSSTAYMQLSSLTSDDSAVYYCARSESDYWGQGTTLTVSS
VL: DIVLTQSPASLAVSPGQRATISCKASQSVGYDGDTYLSWYQQKPGQPPKLLIYGVSILESGIPARFSGSGSGTDFTLNIHPVEEEDAATYYCQQSSEDPYTFGGGTKLEIK
notes: as for B3
ELISA positive ratio [1]: 14.2
IC ratio [2]: 3.69

B5: SC72.94 (antibody, V domains shown)
VH: QVQLQQPGTELVKPGASVKLSCKASAYTFTSLWIHWVKQRPGQGLEWIGDINPSIGDTYYNERFKSKATLTVDKSSSTAYMQLSSLTSEDSAVYYCTTGDSWGQGTTLTVSS
VL: DIQMNQSPSSLSASLGDTITITCRASQGISIWLSWYQQKPGNIPKLLIYKASNLHTGVPPSFSGSGSGTDFTLTISSLQPEDIATYYCLQSQSYPWTFGGGTKLEIK
notes: as for B3
binding result [3]: binds

B6: SC72.132 (antibody, V domains shown)
VH: EVKLVESEGGLVQPGSSMKLSCTASGFTFSDYYMAWVRQVPEKGLEWVATIDYDGSNTYYLDSLKSRFIISRDNAKNILYLQMSSLKSEDTATYYCARDGGYDEDYFDYWGQGTTLTVSS
VL: DIVMSQSPSSLAVSVGEKVTLSCKSSQTLLYSSNQQNYLAWYQQKPGQSPKLLIYWASTRESGVPDRFTGSGSGTDFTLTISSVKAEDLAVYYCHQYYTYPFTFGSGTKLEIK
notes: as for B3
binding result [3]: binds

B7: SC72.96 (antibody, V domains shown)
VH: EVQLQQSGPELVKPGASVKMSCKASGYTLTAYNIHWVKQSHGKSLEWIGFINPHSGGTTYNEKFKGKATLTVNKSSSTANMELRSLTSEDSAVYYCASIYYYGSSYFDHWGQGTTLTVSS
VL: DIQMTQSPASLSASVGETVTMTCRASENIHSNLVWYQQKQGKSPQLLVYAATNLADGVPSRFSGSGSGSQFSLKIDSLQPEDFGSYLCQHFYGTPRTFGGGTKLEIK
notes: as for B3
binding result [3]: binds

B8: SC72.91 (antibody, V domains shown)
VH: QVQLQQSGPEVVKPGASVKLSCKASGYTFTTYDINWVKQRPGQGLEWIGWIYFRDGTNKYNEKFKGKATLTVDTSSSTAYMELHSLTSEDSAVYFCASVYDGYYVSGFDIMDYWGQGTSVTVSS
VL: DVVLTQTPLSLPVSLGDQASIYCRSSQSIVHSNGNTYFEWYLQKPGQSPKLLIYKVSNRLSGVPDRFSGSGSGTDFTLKISRVEAVDLGIYYCFQASHVPFTFGAGTKLELK
notes: as for B3
binding result [3]: binds

B9: SC72.76 (antibody, V domains shown)
VH: QVQLKESGPGLVAPSQSLSITCTVSDFSLTNYAVHWVRQSPGKGLEWLGVIWSDGNTDYNAPFISRLSISKDNSKSQVFFKMNSLQADDTAIYYCASYGDSAYWGQGTLVTVSA
VL: DIVLTQSPASLTVSLGQRATISCRASQSVRTSNYSYMHWYQQKPGQPPKLLIKYASNLESGVPARFSGSGSGTDFTLNIHPVEEEDTATYYCQHHWEIPFTFGGGTKLEIK
notes: as for B3
binding result [3]: binds

B10: SC72.28 (antibody, V domains shown)
VH: DVQLQQSGAELVRPGALVKLSCKASGFNIKDYLIHWVKQRPEQGLEWIGCIDPENGNTIYDPRFQGKAKITSDTSSTTAYLRLTSLTSEDTAVYYCGRGGLDYWGQGTTLTVSS
VL: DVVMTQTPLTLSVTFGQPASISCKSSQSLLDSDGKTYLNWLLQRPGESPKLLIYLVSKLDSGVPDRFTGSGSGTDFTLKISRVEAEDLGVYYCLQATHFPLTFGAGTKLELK
notes: as for B3
binding result [3]: binds

B11: SC72.52 (antibody, V domains shown)
VH: QVQLQQPGSVLVRPGASVKLSCKASGYTFTSYWMHWVKQRPGQGLEWIGEIYPNSGRTNYNEKFKGKATLTVDTSSSTAYVDLSSLTSEDSAVYYCHYYDDNYGYWGQGTTLTVSS
VL: DIVITQDELSNPVTSGESVSISCRSSKSLLYKDGKTYLNWFLQRPGQSPQLLIYLMSTRASGVSDRFSGSGSGTDFTLEISRVKAEDVGVYYCQQFVEYPLTFGAGTKLELK
notes: as for B3
binding result [3]: binds

B12: SC72.63 (antibody, V domains shown)
VH: EVQLLQSGPELVKPGASVKMSCKASGYTLTDYNLHWVKQSHAKSLEWIGYINPYNGVTSYNQRFKGKATLTVNKSSSTAFMEFRSLTSEDSAVYYCVSLYYGDDPFACWGQGTLVTVST
VL: DIQMTQSPASLSASVGETVTMTCRASENIYSNLAWYQQKQGKSPQLLVYAATNLADDVPSRFSGSGSGTQFSLKINSLQPEDFGIYYCHHFYGSPLTFGAGTKLELK
notes: as for B3
binding result [3]: binds

B13: SC72.93 (antibody, V domains shown)
VH: QVQLQQSGAELVRPGASVTLSCKASGYIFIDYEMHWVKQTPVHGLEWIGSIDPETGDTVYNQKFKGKATLTADKSSSTAYMELRSLTSEDSAVYYCSRGGLDYWGQGTTLTVSS
VL: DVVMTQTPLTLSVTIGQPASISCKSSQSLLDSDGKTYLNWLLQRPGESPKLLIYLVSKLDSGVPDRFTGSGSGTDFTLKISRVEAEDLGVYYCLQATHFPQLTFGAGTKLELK
notes: Murine monoclonal antibody from a hybridoma; same VL as SC72.2; light chain amplified with kappa primers
binding result [3]: binds
